Assay results: US6017533
No end group written: not given here.

What was measured:
[1] = target: PACAP receptor in rat brain crude membrane (rat); test: displacement of [^125 I]MAX from rat brain crude membranes
[2] = target: PACAP receptor in rat brain crude membrane (rat); test: displacement of [^125 I]PACAP 27 from rat brain crude membranes
[3] = target: PACAP receptor in rat brain crude membrane (rat); test: displacement of [^125 I]MAX and [^125 I]PACAP 27 from rat brain crude membranes; reference M65

Which IC50 [1] does the source give for M65 (SEQ ID NO: 3) (peptide) here?
Its IC50 is 2.96 nM.

What about the IC50 [2] of the same molecule?
The IC50 was 5.96 nM.

How did the IC50 [1] turn out when FTDSYSRYRKQMAVKKYLAAVLGKRYKQRVKNK-NH2 [PACAP 6-38 (SEQ ID NO: 6-NH2)] was run?
The IC50 was 8.35 nM.

And the IC50 [2]?
The IC50 was 39.1 nM.

And the fold of IC50 against M65 [3]?
Its fold of IC50 against M65 is 6 to 10 times.

For HSDGIFTDSYSRYRKQMAVKKYLAAVLGKRYKQRVKNK-NH2 (ligand) [PACAP 38 (SEQ ID NO: 4-NH2)], which IC50 [1] is on record?
Its IC50 is 1.91 nM.

What about the IC50 [2] of the same molecule?
The IC50 was 4.45 nM.

Which IC50 [1] does the source give for FTDSYSRYRKQMAVKKYLAAVL-NH2 [PACAP 6-27 (SEQ ID NO: 7-NH2)] here?
The IC50 was 235 nM.

What about the IC50 [2] of the same molecule?
The IC50 was 1030 nM.

Which results are given for HSDGIFTDSYSRYRKQMAVKKYLAAVL-NH2 (ligand) [PACAP 27 (SEQ ID NO: 5-NH2)]?
IC50 [1]: 2.16 nM; IC50 [2]: 9.55 nM
